Positions of bridges follow the written chain, without caps; N, C: chain ends. Groups on a side chain read outwards from the residue. Chains are numbered I, II in the order given. *: point of attachment. Biotin = O=C1N[C@H]2[C@H](CS[C@H]2CCCCC(=O)*)N1; AEEA = NCCOCCOCC(=O)O
Columns and labels:
[1] = molecular target: KDR (VEGFR-2), full-length receptor on cells (human), P35968; experiment: specific binding of neutravidin-HRP complex at 2.78 nM to KDR-transfected cells; reference P1-XB (3X) + P6-XB (1X) at 5.55 nM
[2] = molecular target: KDR (VEGFR-2), full-length receptor on cells (human), P35968; experiment: specific binding of neutravidin-HRP complex at 3.33 nM to KDR-transfected cells; reference P5-XB (1X) + P1-XB (3X)
[3] = molecular target: KDR (VEGFR-2), full-length receptor on cells (human), P35968; experiment: competition with 300 pM 125I-VEGF on KDR-transfected 293H cells; peptide 30 µM; conditions: remark: other sources report otherwise
[4] = molecular target: KDR (VEGFR-2), full-length receptor on cells (human), P35968; experiment: competition with 300 pM 125I-VEGF on KDR-transfected 293H cells; peptide 0.3 µM; conditions: remark: other sources report otherwise

Chain of KDR (VEGFR-2), full-length receptor on cells (human), P35968 (P35968 20-1356): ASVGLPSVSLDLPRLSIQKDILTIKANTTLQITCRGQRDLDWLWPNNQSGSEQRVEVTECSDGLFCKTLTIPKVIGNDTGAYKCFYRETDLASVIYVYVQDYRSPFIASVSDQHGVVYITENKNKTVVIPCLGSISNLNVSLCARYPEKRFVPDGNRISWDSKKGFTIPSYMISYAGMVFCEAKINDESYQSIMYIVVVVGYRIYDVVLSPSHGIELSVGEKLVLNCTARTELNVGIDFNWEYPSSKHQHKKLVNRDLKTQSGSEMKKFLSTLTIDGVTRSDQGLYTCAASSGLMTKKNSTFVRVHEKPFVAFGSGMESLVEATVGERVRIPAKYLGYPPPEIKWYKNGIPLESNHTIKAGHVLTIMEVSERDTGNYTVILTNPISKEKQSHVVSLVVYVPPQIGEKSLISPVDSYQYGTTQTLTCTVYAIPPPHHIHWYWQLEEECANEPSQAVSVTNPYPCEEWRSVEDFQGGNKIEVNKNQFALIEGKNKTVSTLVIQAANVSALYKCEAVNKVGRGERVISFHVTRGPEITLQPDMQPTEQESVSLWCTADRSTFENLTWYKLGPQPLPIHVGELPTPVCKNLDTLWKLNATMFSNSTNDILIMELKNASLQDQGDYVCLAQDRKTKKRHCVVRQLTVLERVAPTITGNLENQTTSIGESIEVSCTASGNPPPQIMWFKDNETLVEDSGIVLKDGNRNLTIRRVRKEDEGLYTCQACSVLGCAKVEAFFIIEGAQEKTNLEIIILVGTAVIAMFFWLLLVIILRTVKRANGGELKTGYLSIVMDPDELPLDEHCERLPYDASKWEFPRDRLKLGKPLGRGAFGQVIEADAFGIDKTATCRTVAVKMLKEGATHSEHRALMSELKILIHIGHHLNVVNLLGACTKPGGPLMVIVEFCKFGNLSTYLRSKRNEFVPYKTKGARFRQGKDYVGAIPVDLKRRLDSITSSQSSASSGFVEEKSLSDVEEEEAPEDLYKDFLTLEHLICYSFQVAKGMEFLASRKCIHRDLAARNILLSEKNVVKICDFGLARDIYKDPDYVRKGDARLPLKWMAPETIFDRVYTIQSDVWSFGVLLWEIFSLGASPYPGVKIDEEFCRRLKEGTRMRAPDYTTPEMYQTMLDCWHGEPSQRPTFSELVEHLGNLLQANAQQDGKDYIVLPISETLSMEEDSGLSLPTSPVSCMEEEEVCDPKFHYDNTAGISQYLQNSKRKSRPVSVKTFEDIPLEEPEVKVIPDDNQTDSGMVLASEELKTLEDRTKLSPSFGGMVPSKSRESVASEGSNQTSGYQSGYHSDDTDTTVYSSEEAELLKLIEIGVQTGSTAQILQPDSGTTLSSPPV

Row | Heteromer/Monomer Ratio [2] | Binder | further results
1 | 109 fold | P1-XB (2X) + P6-XB (1X) + P5-XB (1X) / neutravidin-HRP (peptide, not shown: large carriers; small tags and cut ends, disulfide I:6-I:16, II:6-II:13 (inferred); not fully specified; also: bound via biotin to neutravidin-HRP) peptide 1: Ac-GDSRVCWEDSWGGEVCFRYDPGGGK([AEEA-AEEA-Biotin])-NH2 peptide 2: Ac-AGPKWCEEDWYYCMITGTGGGK([AEEA-AEEA-Biotin])-NH2 | –
2 | 242 fold | P1-XB (1X) + P6-XB (2X) + P5-XB (1X) / neutravidin-HRP (peptide, not shown: large carriers; small tags and cut ends, disulfide I:6-I:16, II:6-II:13 (inferred); not fully specified; also: bound via biotin to neutravidin-HRP) peptide 1: Ac-GDSRVCWEDSWGGEVCFRYDPGGGK([AEEA-AEEA-Biotin])-NH2 peptide 2: Ac-AGPKWCEEDWYYCMITGTGGGK([AEEA-AEEA-Biotin])-NH2 | –

Second part, the binder before the results:

Row | Binder | Heteromer/Monomer Ratio [2] | further results
3 | P1-XB (1X) + P6-XB (1X) + P12-XB (2X) / neutravidin-HRP (peptide, not shown: large carriers; small tags and cut ends, disulfide I:6-I:16, II:6-II:13 (inferred); not fully specified; also: bound via biotin to neutravidin-HRP) peptide 1: Ac-GDSRVCWEDSWGGEVCFRYDPGGGK([AEEA-AEEA-Biotin])-NH2 peptide 2: Ac-AGPTWCEDDWYYCWLFGTGGGK([AEEA-AEEA-Biotin])-NH2 | – | Heteromer/Monomer Ratio [1]: 47 fold
4 | Ac-AGPKWCEEDWYYCMITGTGGGK([AEEA-AEEA-Biotin])-NH2 (disulfide 6-13 (inferred)) [P5-XB] | – | % inhibition of 125I-labeled VEGF binding [3]: 48%; % inhibition of 125I-labeled VEGF binding [4]: 24.4%
5 | P1-XB (1X) + P6-XB (1X) + P5-XB (2X) / neutravidin-HRP (peptide, not shown: large carriers; small tags and cut ends, disulfide I:6-I:16, II:6-II:13 (inferred); not fully specified; also: bound via biotin to neutravidin-HRP) peptide 1: Ac-GDSRVCWEDSWGGEVCFRYDPGGGK([AEEA-AEEA-Biotin])-NH2 peptide 2: Ac-AGPKWCEEDWYYCMITGTGGGK([AEEA-AEEA-Biotin])-NH2 | 213 fold | –
